Measurements taken from the DeepSol protein solubility set.

Assay: soluble on expression in E. coli; label from the status in PepcDB or PDB records

Soluble on expression in E. coli, not soluble:
MGSDKIHHHHHHMVNDMQERQNRYWQLLHQPDRLLLLHQASSVEQFVTLMGDWLAWPELTLDQMLDFVHMQRWEDFTPKLALFSQAWLPYRYCSQSKEVYWIPAFNQLSKPFLEDDISDIRLGLLAIFIQPKTLLKSLLTQCDSVPEIHPCLMIFHWSRCGSTLVSSSFSKLNDCLVISESMLCSDIMRDDFWSQEVKVKLVDLCLRLQGRFRHGERHLVVKWNAWDLAYWPMLLALYPQSRVLCLIRNPKDILASHQRLAGRHMVEGQGLLSTEWHIQQIETVSTTFSLNKFRISVLQHLAQLTHALLNSNRAILLDYQQVKDFHPTTLSTILGRPLSMDEIECWQDHWCFDAKQQGQVFTPAVSNQPVPLRELQSPSWQQLFMTYNQLLQRLYWDKKHDV
MGSDKIHHHHHHMVNNVDVYYEGWGERWQWGRLASSTALTGRPLIMFEYSEEAIRRGLELSSLRLPLNGPRLSRGFPSYQLGLPGPVYDALPDGWGMLLMDRLFRLRGLNTARIGPLERLTYIGSNAMGAMSFEPSQPEASAVSEDIPLAQLSAEVQEVLDGEGGEFLQRLLQMGGSPQGARPKALLYCDPDTKTLTTSAASGLDAWLFKFPAKQEHPEVCAIEAVYAQCLRECHIHTPDTEYIELPNGQAAFASRRFDRQNGLRIPMQSLAAFTEANYQSPGSLDYANFLRATQICTNDVREKVLAFERVVFNVIFNNRDDHTKNFAYIMSSSGQWKLAPAYDVTYCEGPGGYHQMDVMGEALEISRELIHRLGVQEADLTSSQVDIIIEQYGEVAASFAKRAAGMFPGCITQDTLRTIQDRINDNIRCLQKR
MGSDKIHHHHHHMVNSEQALHQHDPAPILQLDKVSKSFGPVNVINQVSIDVRPGRVLALLGENGAGKSTLIKMMSGVYQPDGGQILVDGKPTTLPDTKTAESFGIATIHQELNLVPTMTVAENVMLGRTPRKWGLVNFKHLRRQAQAALDLIGVDVDLNAQVGSLGIARQQMVEIAKALSMNARILILDEPTAALTGREIDQLFKVVDQLKEKGVAMVFISHHLDEIARIGDTVSVLRDGQFIAELPADTDEDELVRLMVGRSIENQYPRSAPEIGQPLLEVKNLNAEGRFTDISLTVRAGEVVGLAGLVGAGRTEVVRSIAGVDKVDSGEVIVAGKKLRGGDISEAIKNGIGHIPEDRKAQGLVLGSSVEDNLGLATLASTARAGLVDRSGQHKRAAEVAEKLRIRMASLKQPISDLSGGNQQKAVFGRWVLAGSNVLLLDEPTRGVDVGAKVEIYNIINEMTEKGGAVLMVSSELPEVLGMADRILVMSGGRIAGELPAKGTTQDDVMALAVSQVDDSITEEAAAEIENTKEDR
MGSDKIHHHHHHMVNSSGLLAKLYNAFNPFEPLPAGDPKYVDCQDVRGDADIEQELGNRMRLADTNTCQLYSGHRGAGKSTELLRLKKYLENREFYVVYFAADEEDIDSEDAQYTDILLACTRRLLKDLKGIASPRPILDWLKGRWEDLKDLAQTPIEFESLGVEAQLTQFAKLTANLRAVPELRQKIRQKIDPYTVTLIQVLNEFLVDAKQHLPNGYKKLAVIVDNLDRMVLVKDAERTNYEEVFLDRSEQLQALDCHLIYTVPISMVYSTRATDLRDIYGDPQILPMIMVKTFEGNVYQPGLEKVKEVIKKRVRQIAPELSLETEIFDSPQTLDRLCLMSGGHVRNLLLLTQDAIGRSEDLPVSEKAVRRAITQARDTYRRAVENHQWCLLAEVSCSKRIINDDLYRSLMYNRCLLEYRYLDDDGEMQRWYDIHPLIQGIPEFKEAVAKLS
MGSDKIHHHHHHMVQHLVDLLDTWLPSYQEDWVLAVLTQVEGSSYRKPGAIMLFHPMGKSLGMLSGGCLEADLRRHAQRAIQTQQVIQLTYDATDESDTSYQLGCGGIVNIMMVSLNKANNYLGLVSVHDALMRGDRGTYQLEIVADGVSSHQISGHFVEASSDAAPITLNTKTLKVTEQHKTLLQIPLRPPVHIGIFGGGLDAKPIAQMAQTMGWKVTIFDERTAYARTYDFPGCHIMKHPTPSISTDLLSGLDAAFIMSHNLQIDAKTLKTLQPLPLAYISLLGPVHRRDKVLDMAELSLKDFSGYFSAPAGLALGGELPGSVALSILSQCHGVLYNSKLTSLDSVML
MGSDKIHHHHHHMVQLIKKYEDLLCLLDELIKNESTFRWDEFYLERERDVPFFVLAPDEQLVEYVCTGLIESGKVLELGCGPGRNAIYLAENHFEVDVVDLSQKAIDWAMDRANERKASIRFIRENIFNLNVNKASYDLVYDSGCFHHIPPHRRMDYIHLVTTALKPGGHFGLTCFIENGPLGGAAISDLDVYRQQSLQGGLGFTEQKLIQIFDDFAVIEIRKMKEYPNDSSRFGVNGLLTALFQKKKVEKVK
MGSDKIHHHHHHMVSKLLALEAYPKLKDIDFRLLRAVELNMRHHKWVPLEDIARFARMDLESASYRLGKLDKLGLVIRRSDIGYIGYQLTIHGYDALAIRAFAKKGVIEAISTTHIGVGKDADVYVAITPQGEKVAIKFNRIGERTSARKAYYHSDVFADKHHKSWLYVSRLIAKKEHEALVLLSSFAKVPKPIAWNRHAIVMEFIDGVELAELRDTDLTKEEAEEILGKVLDEYEKIVKFGIVHGDMSEFNIVITKDNDILIIDWAQYLTCANPESLGLLKRDISVLLNAFRRRWGVKRDFEEEWKRFYEAWQIGRREKEES
MGSDKIHHHHHHMVSKYHEIFLNIIQQIEDGQLKRGDKLPSIRQLSQDFHCSKDTVQKALSELKYQKYIYPILKSGYYVFEDNHEEEILPPISPSNYHNIAYEDFRTCMNETLVGREDYLFNYYHQEEGLEELTQSLQALFVDEAIYSKKENIVVTSGSQQALYILSQMTFPNQKEIILLEQPTYHRMNTLVKSQNLPYLTIERGFDGLDFNRLEEIFKQEKIKFFYTIPRLSNPLGLSYSHKEKQTLVELAHKYDVYIIEDDYMADFDRASNVSLHYLDTNDRIIYLKSFSMSLFPALRLGSLILPKKLLKKFLDYKNLIDYDTNLIMQKALSLYIDNGMFAKNKKRLKQMYYQKTSELAKEFSTFTLKLPHHIFQDSLILQLPTKVNLALLKYRLNSPNFLEKNYISTCPYHFIQLQAGENWQNLLTIFE
MGSDKIHHHHHHMVSYKILSVANKLKNIRDKYGLSQEDLAGNEITRNLISQIEHNKANLTRSAAEIMLKNLKKICDKKNVQVDEDINYLMEDEKSQAIKVLDKYIDDLRDLTIYKDNVFINKLREVEDFLVTWDFRDKKITIFELAGDYFSSTNDFYNASLYYEKAKALIDINIYSDNIVHILRKLSMTYYYMLRYQDDINCCEFALKQFKNMDEEYRCIFLFNSSLCYGQLKKYDLALKRLNEVESIIKNIDQNKYYEVLIQKAICYQWMKEYQKSLDIYNKLLESIDKSDYEKYLFILVNSSDIYVENSNFEKAESNLRIILENINNLNESSTLLPSTYLEMSRILKKLGYTKDAELYCLKSLNYAKRNTHYYLVNDIYGELLDIYKTLNVPEKVQTIKDEFFSNSSRDKNLNSKLMFKLLDFYFATNDIHSIKEIYDFSKNFIQERMINLCY
MGSDKIHHHHHHMVTGASGFVGSALCCELARTGYAVIAVVRRVVERIPSVTYIEADLTDPATFAGEFPTVDCIIHLAGRAHILTDKVADPLAAFREVNRDATVRLATRALEAGVKRFVFVSSIGVNGNSTRQQAFNEDSPAGPHAPYAISKYEAEQELGTLLRGKGMELVVVRPPLIYANDAPGNFGRLLKLVASGLPLPLDGVRNARSLVSRRNIVGFLSLCAEHPDAAGELFLVADGEDVSIAQMIEALSRGMGRRPALFTFPAVLLKLVMCLLGKASMHEQLCGSLQVDASKARRLLGWVPVETIGAGLQAAGREYILRQRERRK
MGSDKIHHHHHHMVVESGFTAAQLPWLEGPRQAFLAQLTRQKMPHAQLVGIDSAYGGELLSVFMARAAMCLQPTPAGACGFCKSCQLFDAGNHPDFYHIAADGNQIKVDQIRELCTRLTATAQQSGMRVAIIHHSERLNSAAANALLKTLEEPGKDTLLILQSDTPARLMATVGSRCQRIPFVVPSREIIKNWLAQQCDIKEDVTWCLSVVGGPLQLAESLQSEGGQQSRYQSLLQFRKDWAQSLSSGHLCASLLTISEQQIIDVLKVLYLLIRQVLLKNSHQDAFIHAQLGNLAAKIMGMCHSLSTMPSVNYLALCQSYVLEYREITNK
